Paper PMC9388150 (Proceedings of the National Academy of Sciences of the …, 2022)

Legend:
[1] = target: full-length TtKin5 kinesin-2 (T. thermophila) (UniProt Q7YUC7)
[2] = target: CeOSM-3^G444E (C. elegans) (UniProt P46873)
[3] = target: the molecule itself; experiment: SEC-MALS

CeOSM-3^G444E (C. elegans), sequence (P46873 whole entry G444E): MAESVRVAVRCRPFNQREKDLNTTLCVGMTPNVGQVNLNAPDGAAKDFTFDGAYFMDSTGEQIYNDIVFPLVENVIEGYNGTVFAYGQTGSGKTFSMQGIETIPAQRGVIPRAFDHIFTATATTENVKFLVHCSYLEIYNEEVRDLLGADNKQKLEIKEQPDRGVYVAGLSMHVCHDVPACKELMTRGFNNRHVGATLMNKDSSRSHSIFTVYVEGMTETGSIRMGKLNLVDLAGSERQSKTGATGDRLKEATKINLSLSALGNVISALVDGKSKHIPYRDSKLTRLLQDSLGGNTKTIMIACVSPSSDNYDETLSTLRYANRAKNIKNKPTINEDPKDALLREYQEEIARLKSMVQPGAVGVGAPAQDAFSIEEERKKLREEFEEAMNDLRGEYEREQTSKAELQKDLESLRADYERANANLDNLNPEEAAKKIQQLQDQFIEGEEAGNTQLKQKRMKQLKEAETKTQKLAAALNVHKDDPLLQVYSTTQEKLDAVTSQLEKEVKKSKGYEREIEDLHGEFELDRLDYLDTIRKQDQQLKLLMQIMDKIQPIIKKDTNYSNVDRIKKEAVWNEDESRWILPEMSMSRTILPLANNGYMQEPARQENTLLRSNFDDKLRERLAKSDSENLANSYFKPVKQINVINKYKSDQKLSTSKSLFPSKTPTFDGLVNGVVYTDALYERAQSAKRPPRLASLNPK

Molecule TtIFT70/52 adaptor complex has a velocity of TtKin5 with TtIFT70/52 in single-molecule transport assays [1] of 2 µm/s.

Molecule “CeIFT70/52 adaptor complex (from UniProt Q8I7G4 1-656)” has a velocity of CeOSM-3^G444E with CeIFT70/52 in single-molecule transport assays [2] of 1.7 µm/s.

TtIFT70 (natural protein) showed a velocity of TtKin5 with TtIFT70 in single-molecule transport assays [1] of 1.5 µm/s.

B1: full-length TtKin5 kinesin-2 (natural protein, T. thermophila, UniProt Q7YUC7 1-836, looked up)
chain: MSSETVKVMVRARPMNKLEISKGCANIVQVDPQTNQIILSNGKDAEAAKVFTYDYVFPPDIQQQTVYENSAFPLVESVVEGYNGTIFAYGQTGCGKTHSMLGKPNDEVEKGIIPRTFSHIINIVESANDKNFLVRCSYIEIYNEEIHDLLGKDAKARMDLKEYPDKGVFVKDLTMNVVKTVAEMEKWMNIGTENRSVGATAMNKDSSRSHSIFTLYIECSYKVEGDTEDHITAGKLNLVDLAGSERQSKTQATGDRLKEATKINLSLSALGNVISALVDGKSQHVPYRDSKLTRLLQDSLGGNTKTIMIAAISPADYNYEETLSTLRYASRAKNIKNQPKVNQDPKDALLKEYADEIKKLKEMLLKQQAGEQVNFNAVVNGNGQQQPQLAIQHSSSHVMNSSEVKKLKEKNDALNAERQQIEEEVKNKEKLFQQQMQEKLMIEQKLKEVEQKFIVGGTADQDKKKKISQMRNKLKKQMQEHEKIQEELKQKDEEFENLEIKYSSLQEELDATKKKVKKLNQKYKQAQSEIKDLEKEHEIQKEDLLDTIRYQQREVKILMSICQMLLTPDEIEIIKGQGEWQDDYQVYKLPPFYFKQKKLNFPKLPAAQAMDMIDQEKQSREIDFMRQNNNFDNRQNNNHQNGNSHSHSNSIKRIPSGTMDNFEDMNKFQFGNGPAKSNNTSRYNNGFQNGSDEFDLSKYDAGGGNSLHSIQESLKEKNNSPNIRIKKAHKVQQQPEKQRIPNVSLDPIESQRISQQKLMGLQDSHFLEPSFQGGEQRRSKNIQLQPIQARPLSNSQTVMNLNQLNKNNINMNSIDFDQIANKTPNRVKLDKIQVPR
For B1, the “stoichiometry N” value [3] was 2.
